In US20260042834A1 (HBM ALPHA THERAPEUTICS, published 2026):
Numbering of substitutions follows the chain as printed.

T1: biotinylated CRH (human and mouse, not fully specified; biotinylated, position not stated)
T1 construct: also called Biotin-CRH; biotin-labeled CRH
T1 peptide: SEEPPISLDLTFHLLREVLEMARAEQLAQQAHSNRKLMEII

T2: hUCN1 (NT Biotin) (human, UniProt P55089 83-122, biotin at the N-terminus)
T2 construct: also called human UCN1 (NT biotin)
T2 peptide (looked up): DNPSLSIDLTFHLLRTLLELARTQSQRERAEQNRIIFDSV

T3: CRH (CT Biotin) (human and mouse, C-terminal K-Biotin)
T3 construct: also called Peptide 4 (CRH-Biotin)
T3 peptide: T1 peptide

T4: hUCN1 (CT Biotin) (human, UniProt P55089 83-122, biotin at the C-terminus)
T4 construct: also called human UCN1 (CT biotin)
T4 peptide (looked up): T2 peptide (looked up)

T5: CRH (NT Biotin) (human and mouse, not fully specified; biotin at the N-terminus)
T5 peptide: T1 peptide

T6: N-Terminal CRH (human and mouse, C-terminal K-Biotin)
T6 construct: also called N-Ter-CRH (CT-Bion)
T6 peptide: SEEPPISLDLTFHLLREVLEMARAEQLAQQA

T7: human UCN2 peptide (human, UniProt Q96RP3 72-109, limits assumed, not fully specified; biotin at N- or C-terminus in the ELISA)
T7 construct: also called hUCN2; hUCN2 (NT Biotin)
T7 peptide (looked up): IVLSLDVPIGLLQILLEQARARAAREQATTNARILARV

T8: human UCN3 peptide (human, UniProt Q969E3 120-157, not fully specified; biotin at N- or C-terminus in the ELISA)
T8 construct: also called hUCN3; hUCN3 (NT Biotin)
T8 peptide (looked up): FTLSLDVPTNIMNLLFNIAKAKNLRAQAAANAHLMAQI

T9: corticotropin-releasing hormone (CRH) peptide (human and mouse, not fully specified)
T9 peptide: T1 peptide

B1: PR302309-8 (antibody, human IgG1, kappa, V domains shown)
VH: QIQLVQSGSELKKPGASVKVSCKASGYTFTNYGMNWVRQAPGQGLEWMGWINTYTGEPIYTDDFKGRFVFSLDTSVSTAYLQISSLKAEDTAVYYCSRSTMITTGGVFAYWGQGTLVTVSS
VL: DVVMTQSPLSLPVTLGQPASISCRSSQTIVHSDGNTYLEWYQQRPGQSPRLLIYKVSNRFSGVPDRFSGSGSGTDFTLKISRVEAEDLGVYYCFQGSHVPWTFGGGTKVEIKR
notes: Humanized variant of PR302309
B2: PR302055 (antibody, human IgG1, kappa, V domains shown)
VH: EMQLVESGGGLVQPGGSLKLSCAASGFTFSNYWMNWVRQASGKGLEWVAEIRLKSNNYATHYAESVKGRFTISRDDSKSTVYLQMNSLKTEDTAVYYCTVGTLVYWGQGTLVTVSS
VL: DIQLTQSPSSLSASVGDRVTITCRASQSVSTSTYNYMHWFQQKPGKAPKLLIKFASNLESGVPSRFSGSGSGTDFTLTISSLQPEDTATYYCQHSWEIPYTFGQGTKLEIKR
notes: Humanized variant of PR301777
B3: PR302069 (antibody, human IgG1, kappa, V domains shown)
VH: B2 VH with Q13K, K19R, S41P
VL: B2 VL
notes: Humanized variant of PR301777

What was measured:
[1] = target: T1, biotinylated CRH; assay: Octet BLI, biotinylated CRH on SA sensor
[2] = target: T1, biotinylated CRH; assay: Octet in-tandem, row = 1st mAb; competitor (2nd mAb) PR303394
Procedure: (§1) SA sensors (Fortebio, Cat #18-5019) were hydrated in running buffer for 10 mins.

[3] = target: T2, hUCN1 (NT Biotin); assay: ELISA, biotin peptide on streptavidin plate
Outline: (§2)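 Plates were coated overnight at 4° C with streptavidin at 2 μg/ml in PBS to capture the biotinylated peptide. After binding steps, TMB substrate was developed for 15 minutes at room temperature, the reaction was stopped, and OD450 nm was read.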

[4] = target: T3, CRH (CT Biotin); assay: ELISA, biotin peptide on streptavidin plate
Outline: as §2

[5] = target: T4, hUCN1 (CT Biotin); assay: ELISA, biotin peptide on streptavidin plate
Outline: as §2

[6] = target: T5, CRH (NT Biotin); assay: ELISA, biotin peptide on streptavidin plate
Outline: as §2

[7] = target: T6, N-Terminal CRH; assay: ELISA, biotin peptide on streptavidin plate
Outline: as §2

[8] = target: T7, human UCN2 peptide; assay: ELISA on streptavidin-captured hUCN2 (NT biotin) and hUCN2 (CT biotin), mAb at 100 nM and 10 nM, OD450
Procedure: (§3) Streptavidin (Thermo, Cat: 21125) was diluted in PBS with a concentration of 2 μg/mL. 100 μL of diluted streptavidin was added per well to ELISA microplates, and the plates were incubated overnight at 4° C. Plates were blocked with ELISA blocking solution (containing 2% w/v BSA, 0.05% (v/v) Tween-20, pH 7.4 PBS buffer) at 37° C. for 1 hour, and then incubated with either 1 μg/mL hUCN1 (NT Biotin), hUCN1 (CT Biotin), hUCN2 (NT Biotin), hUCN2 (CT Biotin), hUCN3 (NT Biotin), or hUCN3 (CT Biotin) for 1 hour at 37° C. […] 100 μl of TMB Substrate (Biopanda, Cat: TMB-S-003) was added, and the plates were incubated at room temperature for 15 minutes. 100 μL of ELISA stopping solution (Solarbio, Cat #: C1058) was then added to terminate the reaction, and the OD450 nm was determined by an ELISA plate reader (Molecular Devices, Spectra max 384 plus).

[9] = target: T1, biotinylated CRH; assay: Octet in-tandem, row = 1st mAb; competitor (2nd mAb) PR302341-34
Procedure: as §1

[10] = target: T1, biotinylated CRH; assay: Octet in-tandem, row = 1st mAb; competitor (2nd mAb) PR005660
Procedure: as §1

[11] = target: T1, biotinylated CRH; assay: Octet in-tandem, row = 1st mAb; competitor (2nd mAb) PR006669
Procedure: as §1

[12] = target: T8, human UCN3 peptide; assay: ELISA on streptavidin-captured hUCN3 (NT biotin) and hUCN3 (CT biotin), mAb at 100 nM and 10 nM, OD450
Procedure: as §3

[13] = target: T9, corticotropin-releasing hormone (CRH) …; assay: cell-based or functional assay
[14] = target: T1, biotinylated CRH; assay: Octet in-tandem, row = 1st mAb; competitor (2nd mAb) PR302334
Procedure: as §1

[15] = target: T1, biotinylated CRH; assay: Octet in-tandem, row = 1st mAb; competitor (2nd mAb) PR301777
Procedure: as §1

[16] = target: T1, biotinylated CRH; assay: competitive ELISA, coated 1st mAb; competitor PR301777
Procedure: (§4) For epitope binding, a competitive ELISA was performed. Specifically, 1 μg/ml of capture antibody, 100 μl/well, was coated on a 96 well-plate at 4° C. overnight. Plates were blocked with ELISA blocking solution (containing 2% w/v BSA, 0.05% (v/v) Tween-20, pH 7.4 PBS buffer) at 37° C. for 1 hour. […] Subsequently, plates were washed and incubated with Streptavidin-Peroxidase (SIGMA, Cat: 52438-250UG) at 37° C. for 1 hour. 100 μL of 3,3′,5,5′-tetramethylbenzidine (TMB) substrate (Biopanda, Cat: TMB-S-003) was added, and the plates were incubated at room temperature for 15 minutes. 100 μL of ELISA stopping solution (Solarbio, Cat #: C1058) was added to terminate the reaction, and the optical density at 450 nm (OD450 nm) was determined by an ELISA plate reader (Molecular Devices, Spectra max 384 plus).

[17] = target: T1, biotinylated CRH; assay: competitive ELISA, coated 1st mAb; competitor PR302064
Procedure: as §4

[18] = target: T1, biotinylated CRH; assay: competitive ELISA, coated 1st mAb; competitor PR006152
Procedure: as §4

[19] = target: T1, biotinylated CRH; assay: competitive ELISA, coated 1st mAb; competitor PR302069
Procedure: as §4

[20] = target: T1, biotinylated CRH; assay: competitive ELISA, coated 1st mAb; competitor hIgG1
Procedure: as §4

[21] = target: T1, biotinylated CRH; assay: competitive ELISA, coated 1st mAb; competitor PR302055
Procedure: as §4

[22] = target: T1, biotinylated CRH; assay: competitive ELISA, coated 1st mAb; competitor PR302050
Procedure: as §4

[23] = target: T1, biotinylated CRH; assay: competitive ELISA, coated 1st mAb; competitor PR006148
Procedure: as §4

[24] = target: T1, biotinylated CRH; assay: competitive ELISA, coated 1st mAb; competitor PR005660
Procedure: as §4

[25] = target: T1, biotinylated CRH; assay: competitive ELISA, coated 1st mAb; competitor PR004290
Procedure: as §4

Row | Binder | % Inhibition [16] | % Inhibition [17] | % Inhibition [18] | % Inhibition [19] | % Inhibition [20] | % Inhibition [21] | % Inhibition [22] | % Inhibition [23] | % Inhibition [24] | % Inhibition [25] | also measured
1 | B1 | – | – | – | – | – | – | – | – | – | – | Kd [1]: 0.513 nM; koff [1]: 0.000136 s⁻¹; kon [1]: 266000 M⁻¹ s⁻¹; % Inhibition [2]: 77%; EC50 [3]: 0.126 nM; EC50 [4]: 0.029 nM; EC50 [5]: 1.88 nM; EC50 [6]: 0.025 nM; EC50 [7]: 0.025 nM; binding result [8]: no binding (tested: 100 nM); % Inhibition [9]: 74%; % Inhibition [10]: 76%; % Inhibition [11]: 76%; binding result [12]: no binding (tested: 100 nM); CHO-CRE-hCRHR1 0.5 nM CRH IC50 [13]: 1.7 nM; % Inhibition [14]: 65%; % Inhibition [15]: 80%
2 | B2 | 94% | 95% | 95% | 95% | 2% | 95% | 95% | 95% | 94% | 94% | –
3 | B3 | 94% | 95% | 94% | 95% | 0% | 95% | 95% | 95% | 94% | 93% | –
